# B1: ISM1: recombinant mouse ISM1 protein with a C-terminal myc-his tag generated in mammalian HEK 293 Expi cells (protein, UniProt A2ATD1 30-454, looked up)
# Isthmin-1: SDRQDAAAGNNNLNLESDSTSETSFPLSKEAPEEHQVVHQPFPRQRFPPETGHPSLQRDGPRSFLLDLPNFPDLSKADINGQNPNIQVTIEVVDGPDSEAEKDQHPENKPSWSLPAPDWRAWWQRSLSLARTNSGDQDDKYDSTSDDSNFLSVPRGWDRPAPGHRTFETKEQPEYDSTDGEGDWSLWSVCSVTCGNGNQKRTRSCGYACIATESRTCDRPNCPGIEDTFRTAATEVSLLAGSEEFNATKLFEVDMDSCERWMSCKSEFLKKYMHKVINDLPSCPCSYPTEVAYSTADIFDRIKRKDFRWKDASGPKEKLEIYKPTARYCIRSMLSLESTTLAAQHCCYGDNMQLITRGKGAGTPNLISTEFSAELHYKVDVLPWIICKGDWSRYNEARPPNNGQKCTESPSDEDYIKQFQEAREY
# modifications: C-terminal myc-His tag
# notes: recombinant mouse ISM1 protein with a C-terminal myc-his tag generated in mammalian HEK 293 Expi cells
# Tests used:
# ISM1-KO mice = test: In vivo 2-deoxy-3H-glucose uptake in ISM1-KO mice treated with ISM1 protein; design: species or system mouse; conditions: 5 mg/kg ISM1 protein for two days; male ISM1-KO mice
# Method: In vivo glucose uptake. Mice were fasted for 1 h and injected I.P. with 3H-2-deoxyglucose (3H-2-DOG) at 100 uCi/kg with or without 0.75 U/kg insulin in a total volume of 120 ul per mouse. After 30 min, mice were euthanized. Blood was collected by cardiac puncture and subsequently centrifuged to collect serum. Wet tissue weights were recorded then homogenized in 1% SDS for liquid scintillation counting. Data are expressed as CPM/mg wet weight (fold change over control).
# [1] = Pharmacokinetic measurement of ISM1 blood levels (anti-his ELISA, western blot); assay type: in vivo, mouse; conditions: mice
# Method: Pharmacokinetic measurements of ISM1 blood levels following ISM1 administration. An anti-his tag ELISA was performed to measure ISM1-his concentrations in blood. Recombinant ISM1 protein was administered at 10 mg/kg I.V. in a total volume of 100 ul. Blood was collected and centrifuged at 6000×g for 10 minutes at room temperature to collect serum. Blood levels were measured using the HisProbe-HRP Conjugate according to the manufacturer's instructions (Thermo #15165). Briefly, samples were prepared by diluting serum in coating buffer at 1:100 ratio and added to wells for overnight incubation at 4° C. Nonspecific binding was blocked by adding blocking buffer and incubating for 30 min at 37° C. The plate was washed three times with wash buffer. HisProbe-HRP (Thermo, #15165) working solution was added to each well. After 15 min incubation at room temperature, the plate was washed four times with wash buffer, followed by adding substrate (Thermo, #34022). After 10 min, 1N sulfuric acid was added to stop the reaction. Absorbance was measured at 450 nm.
# DIO mice [2] = test: Therapeutic ISM1 administration for five days in DIO mice; assay type: in vivo, mouse; conditions: 5 mg/kg for five days
# Method: Therapeutic ISM1 recombinant protein administration in vivo. All pharmacologic studies using recombinant ISM1 protein were performed in mice with established diet-induced obesity or non-alcoholic fatty liver disease (NAFLD). For all experiments, male C57BL/6J mice purchased from Jax were fed either a high-fat diet (#D12492, Research Diets) or a NAFLD diet (#D09100310, Research Diets) prior to ISM1 protein injections. In all experiments, mice were mock injected with saline for three days prior to protein or drug injections to prevent stress-induced weight loss. Mice were I.P. injected with vehicle (saline) or indicated doses of ISM1 protein diluted in saline. For the 14-day experiments in NAFLD mice, 7-weeks old mice were fed with NAFLD diet for 3 weeks and then mock injected with saline for 3 days prior to protein injections. The induction of lipid accumulation with NAFLD diet was verified by the significant increase in hepatic lipid levels compared with mice on chow diet at the same time point. […] At the end of the experiments, mice and tissue weights were recorded. […]
# Glucose tolerance and insulin tolerance tests. […] Blood glucose levels were measured at 0, 15, 30, 45, 60, 90 and 120 mins. […] Blood glucose levels were measured at 0, 15, 30, 45, 60, 90 and 120 mins.
# DIO mice [3] = test: Therapeutic ISM1, Metformin or combined administration for 21 days in DIO mice; assay type: in vivo, mouse; conditions: daily for 21 days; compared with vehicle
# Method: (§1) Therapeutic ISM1 recombinant protein administration in vivo. All pharmacologic studies using recombinant ISM1 protein were performed in mice with established diet-induced obesity or non-alcoholic fatty liver disease (NAFLD). For all experiments, male C57BL/6J mice purchased from Jax were fed either a high-fat diet (#D12492, Research Diets) or a NAFLD diet (#D09100310, Research Diets) prior to ISM1 protein injections. In all experiments, mice were mock injected with saline for three days prior to protein or drug injections to prevent stress-induced weight loss. Mice were I.P. injected with vehicle (saline) or indicated doses of ISM1 protein diluted in saline. For the 14-day experiments in NAFLD mice, 7-weeks old mice were fed with NAFLD diet for 3 weeks and then mock injected with saline for 3 days prior to protein injections. The induction of lipid accumulation with NAFLD diet was verified by the significant increase in hepatic lipid levels compared with mice on chow diet at the same time point. NAFLD mice were then daily I.P. injected with either vehicle (saline containing 5% DMSO and 10% Kolliphor) or indicated doses of ISM1 protein (500 μg/kg or 5 mg/kg) or with FXR agonist (30 mg/kg, GW4064, Sigma-Aldrich, #G5172) diluted in vehicle (saline containing 5% DMSO and 10% Kolliphor). For the 21-day experiments in HFD mice, mice were mock injected with saline for three days prior to protein injections. Mice were then daily I.P. injected with either vehicle (saline) or 5 mg/kg of ISM1 protein diluted in saline. Metformin (100 mg/kg, Sigma, #317240) was diluted in saline and daily administered by oral gavage. All groups received control injections by I.P. and oral gavage. At the end of the experiments, mice and tissue weights were recorded. Tissues and plasma were collected and frozen for further analyses.
# Glucose tolerance and insulin tolerance tests. For glucose tolerance tests, mice were fasted overnight and I.P. injected with glucose at 2 g/kg body weight. Blood glucose levels were measured at 0, 15, 30, 45, 60, 90 and 120 mins. For insulin tolerance tests, mice were fasted for 2 h, and I.P. injected with 0.75 U/kg insulin. Blood glucose levels were measured at 0, 15, 30, 45, 60, 90 and 120 mins.
# NAFLD mice = test: Therapeutic administration for 14 days in mice with established NAFLD; assay type: in vivo, mouse
# Method: as §1
# Immunohistochemistry. For H&E staining, livers were formalin-fixed, paraffin-embedded, and sectioned at 6 μm. For hematoxylin and eosin (H&E) staining, sections were deparaffinized and […] with xylenes and ethanol. Briefly, slides were stained with hematoxylin, washed with water and 95% ethanol, and stained with eosin for 30 min. Sections were then incubated with ethanol and xylene, and mounted with mounting medium. For Oil red O stainings, frozen liver tissue slides were fixed with 3% formalin in PBS, washed twice with water, incubated with 60% isopropanol for 5 min and then incubated with Oil Red O solution (3:2 ratio of Oil Red O:H2O) for 20 min. […] Digital images were captured with a Nikon Digital Sight DS-Fi1 color camera and NIS-Elements acquisition software.
# [4] = 0.5 mg/kg daily for 14 days, vs vehicle-treated NAFLD mice
# [5] = 5 mg/kg ISM1 vs 30 mg/kg GW4064, 14 days
# [6] = 5 mg/kg daily for 14 days, vs vehicle-treated NAFLD mice
molecule,measurement,setting,value
B1,glucose uptake in BAT,ISM1-KO mice,increase glucose uptake
same,glucose uptake in iWAT,ISM1-KO mice,trending increase
same,glucose uptake in liver,ISM1-KO mice,no hepatic glucose uptake induction
same,glucose uptake in skeletal muscle,ISM1-KO mice,increase glucose uptake
same,half-life in the blood,"[1]; 10 mg/kg I.V., serum, anti-his ELISA",approximately 70 minutes
same,protein integrity in plasma (western blot),[1]; after I.V. administration,no observed protein degradation or cleavage
same,insulin tolerance (ITT),DIO mice [2],modest improvement
same,ad lib glucose levels,DIO mice [2]; vs vehicle,no difference
same,fasting blood glucose,DIO mice [3],lower
same,glucose tolerance (GTT),DIO mice [3],comparable effects on improving glucose tolerance
same,fed blood glucose reduced,NAFLD mice; [4],not
same,liver weights reduced,NAFLD mice; [4],not
same,"effect on liver weights, blood glucose and histological signs of steatosis compared with benchmark",NAFLD mice; [5],as potent as the FXR agonist GW4064 treatment
same,reversal of hepatic steatosis compared with benchmark,NAFLD mice; [5],performs equal to the FXR agonist GW4064
same,fed blood glucose,NAFLD mice; [6],reduced
same,liver weights,NAFLD mice; [6],reduced liver weights
same,hepatic Fatty Acid Synthase (FAS) protein levels,"NAFLD mice; 5 mg/kg, 14 days",reduced hepatic Fatty Acid Synthase (FAS) protein levels
same,liver Oil red O staining,"NAFLD mice; 5 mg/kg, 14 days",reduced Oil red O staining
same,gross liver morphology,"NAFLD mice; 5 mg/kg, 14 days, vs vehicle treated NAFLD mice",obvious gross morphological changes in liver size and color

# — patent publication US20240342244A1, “Isthmin Protein Therapeutics for the Treatment of Non-Alcoholic Fatty Liver Disease” (The Board of Trustees of the Leland Stanford Junior …, priority 2021, published 2024)
